Assay results taken from paper PMC11784021, “Structural basis for nuclear import of adeno-associated virus serotype 6 capsid protein” (Journal of Virology, 2024).
Where “and” joins values, the source holds several entries; their conditions need not be identical. Equal entries are not always repeated. Primed or numbered codes have the meaning given here. Ends that are not written are not given here. FITC′ = fluorescein isothiocyanate; Ahx = NCCCCCC(=O)O

Columns and labels:
Settings in all cases: both partners purified
[1] = biological target: T1, mouse importin α2 lacking residues 1-70 (IMPα2ΔIBB) (mouse, UniProt P52293 71-529); test: fluorescence polarisation; FITC-tagged AAV6 VP1-BR peptide at 2 nM; importin isoforms serially diluted from an upper concentration of 4.5 µM; three independent experiments
[2] = biological target: T2, human importin α3 lacking the IBB domain (hIMPα3ΔIBB) (human, UniProt O00629 59-521); test: as above
T2 construct: pET30a, His tag with TEV site; also called ΔIBB-IMPα3
T2 sequence (looked up): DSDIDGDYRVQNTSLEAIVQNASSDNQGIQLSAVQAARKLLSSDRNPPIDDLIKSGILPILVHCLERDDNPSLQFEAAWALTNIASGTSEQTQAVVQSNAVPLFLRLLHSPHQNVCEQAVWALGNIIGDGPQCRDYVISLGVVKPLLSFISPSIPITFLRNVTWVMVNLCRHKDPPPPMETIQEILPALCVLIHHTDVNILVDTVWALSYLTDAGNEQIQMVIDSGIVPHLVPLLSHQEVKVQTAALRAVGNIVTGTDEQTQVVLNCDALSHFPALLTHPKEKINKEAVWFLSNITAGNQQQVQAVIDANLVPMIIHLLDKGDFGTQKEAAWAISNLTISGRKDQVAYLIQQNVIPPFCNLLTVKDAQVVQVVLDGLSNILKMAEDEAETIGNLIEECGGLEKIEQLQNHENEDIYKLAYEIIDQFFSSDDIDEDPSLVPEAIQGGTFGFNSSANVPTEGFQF

[3] = biological target: T3, human importin α5 lacking the IBB domain (hIMP5ΔIBB) (human, UniProt P52294 58-538); test: as above
T3 construct: pET30a, His tag with TEV site; also called IMPα5; ΔIBB-IMPα5
T3 sequence (P52294 58-538, stated change not applied): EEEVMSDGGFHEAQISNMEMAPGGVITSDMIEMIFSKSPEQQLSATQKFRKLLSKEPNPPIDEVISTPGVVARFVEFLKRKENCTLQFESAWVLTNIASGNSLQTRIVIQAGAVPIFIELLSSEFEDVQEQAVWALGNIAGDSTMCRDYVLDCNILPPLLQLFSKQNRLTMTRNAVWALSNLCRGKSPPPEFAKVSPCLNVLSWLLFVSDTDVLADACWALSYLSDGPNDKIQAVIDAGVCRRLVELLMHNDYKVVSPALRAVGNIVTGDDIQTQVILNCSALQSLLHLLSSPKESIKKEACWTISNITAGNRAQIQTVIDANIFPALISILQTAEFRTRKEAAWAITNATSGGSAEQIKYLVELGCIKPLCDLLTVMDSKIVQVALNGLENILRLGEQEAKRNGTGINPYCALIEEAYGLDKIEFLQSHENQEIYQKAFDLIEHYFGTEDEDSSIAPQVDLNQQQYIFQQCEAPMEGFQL

[4] = biological target: T4, human importin α7 lacking the IBB domain (hIMPα7ΔIBB) (human, UniProt O60684 61-536); test: as above
T4 construct: pET30a, His tag with TEV site; also called ΔIBB-IMPα7
T4 sequence (O60684 61-536, stated change not applied): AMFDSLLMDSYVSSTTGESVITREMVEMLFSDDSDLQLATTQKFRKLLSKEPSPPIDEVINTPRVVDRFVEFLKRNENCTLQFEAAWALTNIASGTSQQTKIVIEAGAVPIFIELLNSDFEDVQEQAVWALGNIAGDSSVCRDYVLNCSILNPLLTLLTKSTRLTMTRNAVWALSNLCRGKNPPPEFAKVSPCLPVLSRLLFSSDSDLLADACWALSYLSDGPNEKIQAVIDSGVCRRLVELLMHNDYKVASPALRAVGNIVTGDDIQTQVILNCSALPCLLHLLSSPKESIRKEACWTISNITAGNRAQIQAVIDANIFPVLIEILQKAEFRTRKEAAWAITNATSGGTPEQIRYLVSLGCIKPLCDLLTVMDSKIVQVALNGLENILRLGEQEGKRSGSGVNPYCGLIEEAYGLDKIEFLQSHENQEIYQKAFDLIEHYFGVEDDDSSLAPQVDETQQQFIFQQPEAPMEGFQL

[5] = biological target: T1, mouse importin α2 lacking residues 1-70 …; test: crystal structure; co-purified complex of AAV6 VP1-BR and IMPα2; hanging drop, 0.7 M sodium citrate, 0.01 M dithiothreitol, 0.1 M HEPES pH 7.5, 22°C; 2.3 Å

Binder	Kd [1] [nM]	Kd [2] [nM]	Kd [3] [nM]	Kd [4]	binding result [5]
AAV6 VP1-BR FITC-tagged peptide (residues 120-172) (also called FITC-tagged AAV6 VP1-BR; AAV6 VP1-BR FITC peptide; source: synthetic peptide (GenScript)) peptide: {FITC′-Ahx}-QAKKRVLEPFGLVEEGAKTAPGKKRPVEQSPQEPDSSSGIGKTGQQPAKKRLN	265	198	71	23 nM and 24 nM	–
AAV6 VP1-BR (recombinant, residues 115-174) (domain or fragment, A TEV protease site stands upstream of the insert 'for GST-tag cleavage'; 15 residues of it are seen in the final model; also called AAV6 VP1 basic region; source: E. coli (codon optimized, pGEX4T-1), co-purified with IMPα2) GRAVFQAKKRVLEPFGLVEEGAKTAPGKKRPVEQSPQEPDSSSGIGKTGQQPAKKRLNFG	–	–	–	–	binds
